Test results published in US20260152567A1 (CSPC MEGALITH BIOPHARMACEUTICAL, published 2026).

How the values were obtained:
[1] = target: T1, recombinant human CD73 protein (human, UniProt P21589 27-547); assay: BLI (Fortebio), human CD73 on HIS1K biosensors, antibody as analyte
T1 construct: Bought soluble protein; The background says that CD73 forms a homodimer; also called soluble CD73; free CD73 protein
T1 sequence (looked up): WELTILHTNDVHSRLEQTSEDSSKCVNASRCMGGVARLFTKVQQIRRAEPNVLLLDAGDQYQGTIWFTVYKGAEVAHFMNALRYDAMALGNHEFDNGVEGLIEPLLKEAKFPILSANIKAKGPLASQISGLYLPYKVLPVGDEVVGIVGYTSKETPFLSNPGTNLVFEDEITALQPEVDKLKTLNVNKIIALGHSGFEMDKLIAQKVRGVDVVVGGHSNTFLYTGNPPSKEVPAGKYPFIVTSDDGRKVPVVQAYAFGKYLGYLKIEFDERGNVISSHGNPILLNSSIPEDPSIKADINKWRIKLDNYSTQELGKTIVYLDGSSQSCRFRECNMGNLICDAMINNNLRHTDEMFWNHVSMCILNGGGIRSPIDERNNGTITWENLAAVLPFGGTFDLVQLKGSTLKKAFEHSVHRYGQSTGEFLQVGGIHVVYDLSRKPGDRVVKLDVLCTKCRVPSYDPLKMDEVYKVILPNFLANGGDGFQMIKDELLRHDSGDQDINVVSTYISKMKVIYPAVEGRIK
Protocol: The humanized antibody VH and VL were separately constructed into eukaryotic expression vectors containing the hIgG1-kappa constant region with L234A, L235A, P329A and P331S mutations (abbreviated as hIgG1 in the present application). The affinity of all humanized antibodies was assayed in this example. Human CD73 protein was immobilized onto HIS1K biosensors to achieve a binding response threshold of 0.3 nm. After a 120-second baseline step, the sensors were separately immersed in anti-CD73 antibody analytes diluted in a gradient with a 0.02% PBST buffer (each antibody was diluted in a 2-fold gradient with an initial concentration of 25 nM, resulting in 7 concentration gradients). The times for the ligand-analyte binding and dissociation were 120 s and 300 s, respectively. The data of the antigen-antibody affinity were calculated by regression according to the binding curves using an analysis software.

[2] = target: T2, human CD73 on the cell surface (MDA-MB-231 and SKOV3 tumor cells) (human, UniProt P21589 27-549); assay: flow cytometry on SK-OV-3 cells
T2 construct: whole, on cells; also called cell surface CD73; CD73 on the surface of human tumor cells
T2 sequence (looked up): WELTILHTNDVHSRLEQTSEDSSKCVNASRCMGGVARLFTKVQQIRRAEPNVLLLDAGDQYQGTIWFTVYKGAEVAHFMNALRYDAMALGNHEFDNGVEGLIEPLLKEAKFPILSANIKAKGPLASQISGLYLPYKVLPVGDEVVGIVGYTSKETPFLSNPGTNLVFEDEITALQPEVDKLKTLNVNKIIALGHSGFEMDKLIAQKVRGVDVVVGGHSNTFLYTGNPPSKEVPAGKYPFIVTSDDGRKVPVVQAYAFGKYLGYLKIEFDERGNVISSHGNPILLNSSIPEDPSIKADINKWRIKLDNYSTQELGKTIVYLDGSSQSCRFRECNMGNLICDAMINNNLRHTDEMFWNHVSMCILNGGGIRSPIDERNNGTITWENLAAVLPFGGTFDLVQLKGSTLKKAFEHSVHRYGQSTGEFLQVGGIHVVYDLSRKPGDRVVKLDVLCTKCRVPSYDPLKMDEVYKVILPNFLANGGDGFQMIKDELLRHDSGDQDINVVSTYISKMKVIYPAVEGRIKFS
Protocol: (§1) In this example, the exemplary antibodies of the present application were compared with anti-CD73 antibodies described in other patent applications. Antibodies MEDI9447 and Hu101-28 (with CDR sequences from PCT patent applications WO 2016/075099 and WO 2018/137598, respectively) were cloned into eukaryotic expression vectors containing the hIgG1-kappa constant region. The binding ability of the humanized antibodies Hab7C3C2.5 and Hab1F2F9.15 to cell surface CD73 was assessed using tumor cell lines MDA-MB-231 and SKOV3 which endogenously express human CD73 on the cell surface. The cells were seeded in a 96-well plate at a density of 2×10⁶ cells/mL, with 100 μL per well. 4-fold gradient dilutions (0-100 nM) of the antibodies were added, and the mixture was incubated at 4° C. for 1 h. A goat anti-human secondary antibody was added, and the mixture was incubated at 4° C. in the dark for 50 min for labeling. The fluorescence intensity of the cells was then measured by a flow cytometer.

[3] = target: T2, human CD73 on the cell surface …; assay: flow cytometry on MDA-MB-231 cells
Protocol: as §1

[4] = target: T3, N-terminal portion of the CD73 protein (Homo sapiens (Human), UniProt P21589 27-317, limits assumed); assay: ELISA, plate coated with CD73 N-terminal protein at 1 µg/mL
T3 construct: also called CD73 N-terminal protein; N-terminus of the CD73 protein
T3 sequence: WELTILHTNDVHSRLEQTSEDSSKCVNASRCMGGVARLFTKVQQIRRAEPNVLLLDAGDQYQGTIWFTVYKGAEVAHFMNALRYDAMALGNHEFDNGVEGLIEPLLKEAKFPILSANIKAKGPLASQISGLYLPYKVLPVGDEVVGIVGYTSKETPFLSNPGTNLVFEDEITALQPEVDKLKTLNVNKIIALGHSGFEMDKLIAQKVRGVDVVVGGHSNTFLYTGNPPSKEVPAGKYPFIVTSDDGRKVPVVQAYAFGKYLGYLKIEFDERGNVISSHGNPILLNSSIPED
Protocol: In this example, the C-terminal portion (SEQ ID NO. 41) and the N-terminal portion (SEQ ID NO. 42) of the CD73 protein were separately constructed, and the epitopes recognized by the antibodies were detected by ELISA method. Elisa plates were respectively coated with the CD73 N-terminal and C-terminal proteins at a concentration of 1 μg/mL. The test antibodies were diluted in a gradient.

[5] = target: T2, human CD73 on the cell surface …; assay: cell-based or functional assay

B1: Hab7C3C2.5 (antibody, human IgG1, kappa, L234A L235A, V domains shown)
VH: QVQLVQSGAEVKKPGASVKVSCKASGYTFTSYDINWVRQATGQGLEWIGWIYPRDGFTKYNEKFKGRVTLTVNTSISTAYMELSSLRSEDTAVYYCARKEGYRGDWYFDVWGQGTTVTVSS
VL: DIQMTQSPSSLSASVGDRVTITCRASGNVHNYLAWYQQKPGKAPKLLLYNAKTLASGVPSRFSGSGSGTDYTLTISSLQPEDFATYYCQHFWSTPWTFGGGTELEIKR
notes: Humanized 7C3C2; also called Hab7C3C.5
Q: Which Kd [1] does the source give for B1 here?
A: Its Kd is 765 pM.

Q: What about the koff [1] of the same binder?
A: The koff was 0.00272 s⁻¹.

Q: And the kon [1]?
A: Its kon is 3.56e+06 M⁻¹ s⁻¹.

Q: And the EC50 [2]?
A: Its EC50 is 70 pM.

Q: And the EC50 [3]?
A: The EC50 was 410 pM.

Q: Does B1 bind [4]?
A: Result: no binding

Q: And the “Cellular enzymatic activity inhibition IC50” value [5]?
A: The value was 27 pM.

B2: Hab1F2F9.15 (antibody, human IgG1, kappa, L234A L235A, V domains shown)
VH: QVQLVQSGAEVKKPGASVKVSCKASGYTFTSYWMHWVRQAPGQRLEWMGNINPSNGGTKYSQKFQGRVTITVDTSASTAYMELSSLRSEDTAVYYCARRDYGSPSYWGQGTTVTVSS
VL: DIQMTQSPSSLSASVGDRVTITCKASQDINSYLTWFQQKPGKAPKSLIYRTNILLDGVPSRFSGSGSGTDYTLTISSLQPEDFATYYCLQYHEFPVTFGGGTKLEIKR
notes: Humanized 1F2F9; also called Huab1F2F9.15; HuablF2F9.15
Q: B2 was tested. Which Kd [1] did it give?
A: The Kd was 779 pM.

Q: What about the koff [1] of the same binder?
A: Its koff is 0.0016 s⁻¹.

Q: What about the kon [1] of the same binder?
A: The kon was 2.06e+06 M⁻¹ s⁻¹.

Q: And the EC50 [2]?
A: Its EC50 is 190 pM.

Q: What about the EC50 [3] of the same binder?
A: The EC50 was 480 pM.

Q: Does B2 bind [4]?
A: Result: no binding

Q: And the “Cellular enzymatic activity inhibition IC50” value [5]?
A: The value was 69 pM.
